The record followed here is patent publication CN114617961A (BEIJING ORIENTAL BAITAI BIOTECHNOLOGY CO LTD; BEIJING …, dated 2022).

The labels stand for the following.
T1: LAG-3 (human, UniProt P18627 23-450, limits assumed)
T1 sequence (looked up): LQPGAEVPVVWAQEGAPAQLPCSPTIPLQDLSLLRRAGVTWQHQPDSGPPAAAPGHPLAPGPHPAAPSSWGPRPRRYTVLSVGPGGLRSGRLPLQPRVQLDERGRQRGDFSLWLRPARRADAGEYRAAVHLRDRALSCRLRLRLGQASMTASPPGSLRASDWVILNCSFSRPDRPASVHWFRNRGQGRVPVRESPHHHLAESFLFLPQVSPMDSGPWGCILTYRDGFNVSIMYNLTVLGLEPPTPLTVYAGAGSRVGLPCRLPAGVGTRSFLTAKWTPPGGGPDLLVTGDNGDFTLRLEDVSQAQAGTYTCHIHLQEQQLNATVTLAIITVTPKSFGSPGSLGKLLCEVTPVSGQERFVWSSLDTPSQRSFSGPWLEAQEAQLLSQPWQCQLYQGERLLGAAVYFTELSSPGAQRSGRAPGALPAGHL

B1: MA-1 鼠源抗体 (mouse IgG1 / mouse Ck) (antibody)
heavy: EVQLQQSGAELVKPGASVKLSCTASGFNIKDTYMHWVKQRPEQGLEWIGKIDPANGNTKYDPKFQGKATITADTSSNTAYLQLSRLTSEDTAVYYCARDTTVGLDYWGQGTTLTVSSAKTTPPSVYPLAPGSAAQTNSMVTLGCLVKGYFPEPVTVTWNSGSLSSGVHTFPAVLQSDLYTLSSSVTVPSSTWPSETVTCNVAHPASSTKVDKKIVPRDCGCKPCICTVPEVSSVFIFPPKPKDVLTITLTPKVTCVVVDISKDDPEVQFSWFVDDVEVHTAQTQPREEQFNSTFRSVSELPIMHQDWLNGKEFKCRVNSAAFPAPIEKTISKTKGRPKAPQVYTIPPPKEQMAKDKVSLTCMITDFFPEDITVEWQWNGQPAENYKNTQPIMDTDGSYFVYSKLNVQKSNWEAGNTFTCSVLHEGLHNHHTEKSLSHSPG
light: DIVITQSTAIMSASLGEKVTMSCRASSSVNYMYWYQQKSDASPKLWIYYTSKLASGVPARFSGSGSGTSYSLTISSMEAEDAATYYCQQWSSNPHTFGGGTKLEIKADAAPTVSIFPPSSEQLTSGGASVVCFLNNFYPKDINVKWKIDGSERQNGVLNSWTDQDSKDSTYSMSSTLTLTKDEYERHNSYTCEATHKTSTSPIVKSFNRNEC
B2: MA-4 鼠源抗体 (mouse IgG1 / mouse Ck) (antibody, V domains shown)
VH: QVKLEESGPGLVQPSQSLSITCTVSAFSLTTYAVHWVRQSPGKGLEWLGVIWSGGSTDYNTAFISRLNITKDNSKSQVFFKMNSLQANDTAIYYCARLDGTFFDYWGQGTTLTVSS
VL: DIVLTQTPAIMSASLGERVTMTCTASSSVSSSYLHWYQQKPGSSPKLWIYSTSNLASGVPARFSGSGSGTSYSLTISSMEAEDAATYYCHQYHRSPPTFGGGTKLEIKA
B3: MA-2 鼠源抗体 (mouse IgG1 / mouse Ck) (antibody, V domains shown)
VH: EVQLQQSGAELVKPGASVKLSCTASGFNIKDTYMHWVKQRPEQGLEWIGKIDPANGNTKYDPKFQGKATITADTSSNTAYLQLSRLTSEDTAVYYCARDTTVGLDYWGQGTTLTVSS
VL: DIVLTQTPAIMSASLGEKVTMSCRASSSVNYMYWYQQKSDASPKLWIYYTSNLAPGVPARFSGSGSGNSYSLTISSMEGEDAATYYCQQFTSSPSMTFGGGTKLEIKA
B4: MA-3 鼠源抗体 (mouse IgG1 / mouse Ck) (antibody, V domains shown)
VH: EVKLEESGPELVKPGASVKISCKASGYSFTSYYIHWVKQRPGQGLEWIGWIFPGTGNTRYNEKFKGKATLTADTSSSTVYMQLSGLTSEDSAVYFCARIGGRLTGDAMDYWGQGTSVTVSS
VL: DIVLTQSTASLAVSLGQRATISCRASESVDSYGNSFMHWYQQKPGQPPKLLIYLASNLESGVPARFSGSGSRTDFTLTIDPVEADDAATYYCQQNNEDPWTFGGGTKLEIKA
B5: 人源化抗体HA-4 (human IgG4 / human Ck) (antibody, V domains shown)
VH: QVQLVQSGAEVKKPGASVKVSCKASGYNITDTYMHWVRQAPGQGLEWIGKIDPANGNTKYDPKFQGRATITADTSISTAYMELSRLRSDDTAVYYCARDTTVGLDYWGQGTLVTVSS
VL: DIVITQSPAFLSVTPGEKVTITCRASSSVNYMYWYQQKPDASPKLWIYYTSKLASGVPSRFSGSGSGTDYTFTISSLEAEDAATYYCQQWSSNPHTFGGGTKVEIKR
B6: 人源化抗体HA-2 (human IgG4 / human Ck) (antibody, V domains shown)
VH: QVQLVQSGAEVKKPGASVKVSCKASGYTFTDTYMHWVRQAPGQGLEWIGKIDPANGNTKYDPKFQGRATITADTSISTAYMELSRLRSDDTAVYYCARDTTVGLDYWGQGTLVTVSS
VL: DIVITQSPAFLSVTPGEKVTITCRASSSVNYMYWYQQKPDQAPKLLIYYTSKLASGVPSRFSGSGSGTDYTFTISSLEAEDAATYYCQQWSSNPHTFGGGTKVEIKR
B7: 人源化抗体HA-3 (human IgG4 / human Ck) (antibody, V domains shown)
VH: QVQLVQSGAEVKKPGASVKVSCKASGYNITDTYMHWVRQAPGQGLEWIGKIDPANGNTKYDPKFQGRATITADTSISTAYMELSRLRSDDTAVYYCARDTTVGLDYWGQGTLVTVSS
VL: DIVITQSPAFLSVTPGEKVTITCRASSSVNYMYWYQQKPDQAPKLLIYYTSKLASGVPSRFSGSGSGTDYTFTISSLEAEDAATYYCQQWSSNPHTFGGGTKVEIKR
B8: 人源化抗体HA-1 (human IgG4 / human Ck) (antibody, V domains shown)
VH: QVQLVQSGAEVKKPGASVKVSCKASGYTFTDTYMHWVRQAPGQGLEWIGKIDPANGNTKYDPKFQGRATITADTSISTAYMELSRLRSDDTAVYYCARDTTVGLDYWGQGTLVTVSS
VL: DIVITQSPAFLSVTPGEKVTITCRASSSVNYMYWYQQKPDASPKLWIYYTSKLASGVPSRFSGSGSGTDYTFTISSLEAEDAATYYCQQWSSNPHTFGGGTKVEIKR
B9: 人源化抗体HA-5 (human IgG4 / human Ck) (antibody, V domains shown)
VH: QVQLVQSGAEVKKPGASVKVSCKASGYNIKDTYMHWVKQAPGQGLEWIGKIDPANGNTKYDPKFQGKATITADTSISTAYMELSRLRSDDTAVYYCARDTTVGLDYWGQGTLVTVSS
VL: DIVITQSPAFLSVTPGEKVTITCRASSSVNYMYWYQQKPDASPKLWIYYTSKLASGVPARFSGSGSGTSYTFTISSLEAEDAATYYCQQWSSNPHTFGGGTKVEIKR
B10: 嵌合抗体CA-1 (antibody, human IgG4 S228P, kappa)
heavy: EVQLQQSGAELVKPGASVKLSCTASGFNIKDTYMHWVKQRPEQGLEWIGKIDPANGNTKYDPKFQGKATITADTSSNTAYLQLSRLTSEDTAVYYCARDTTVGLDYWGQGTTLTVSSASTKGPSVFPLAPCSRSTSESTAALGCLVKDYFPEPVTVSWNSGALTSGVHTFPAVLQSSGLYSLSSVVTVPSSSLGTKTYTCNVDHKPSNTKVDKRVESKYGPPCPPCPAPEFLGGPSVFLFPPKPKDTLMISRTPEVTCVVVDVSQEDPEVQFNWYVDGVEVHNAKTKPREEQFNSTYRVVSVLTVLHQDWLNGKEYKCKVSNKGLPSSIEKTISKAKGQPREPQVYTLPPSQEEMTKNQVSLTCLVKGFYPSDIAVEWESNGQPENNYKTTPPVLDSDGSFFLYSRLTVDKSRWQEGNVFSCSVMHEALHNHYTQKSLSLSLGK
light: DIVITQSTAIMSASLGEKVTMSCRASSSVNYMYWYQQKSDASPKLWIYYTSKLASGVPARFSGSGSGTSYSLTISSMEAEDAATYYCQQWSSNPHTFGGGTKLEIKRTVAAPSVFIFPPSDEQLKSGTASVVCLLNNFYPREAKVQWKVDNALQSGNSQESVTEQDSKDSTYSLSSTLTLSKADYEKHKVYACEVTHQGLSSPVTKSFNRGEC

The first assay has as its target T1, LAG-3. The assay can be described thus: cell-based or functional assay.
Take B1: the “EC50 of IL-2 secretion in mixed lymphocyte reaction (CD4+ T cells + DC, 5 days)” value (shortened to “EC50 of IL-2 secretion”) was 0.024 µg/mL. For the molecule B2, the “EC50 of IL-2 secretion” value turned out to be 0.121 µg/mL. In the case of B3, the “EC50 of IL-2 secretion” value stood at 0.03 µg/mL. On the same count and under the same terms, with B4 the figure was 0.076 µg/mL.

For the next assay, the target named is T1, LAG-3. The assay can be described thus: cell-based or functional assay. The source holds these as a separate data set.
Regarding B5, the “EC50 of T cell proliferation (CCK8) in mixed lymphocyte reaction” value (from here on “EC50 of T cell proliferation (CCK8)”) came to 0.0338 µg/mL. As to B6, the “EC50 of T cell proliferation (CCK8)” value was found to be 0.0271 µg/mL.

Consider B7, for which the “EC50 of T cell proliferation (CCK8)” value came to 0.015 µg/mL. As to B8, the “EC50 of T cell proliferation (CCK8)” value was 0.00688 µg/mL. Take B9: the “EC50 of T cell proliferation (CCK8)” value was found to be 0.0318 µg/mL. On to B10, for which the “EC50 of T cell proliferation (CCK8)” value turned out to be 0.00723 µg/mL.
